# Results taken from article doi:10.1101/2021.08.20.457142.
# B1: MKK6 D-site peptide / p38-alpha (MAPK14) L195A, full length (parent complex)
# chain 1: SQSKGKKRNPGLKIPKEAFEQP
# chain 2: MSQERPTFYRQELNKTVWEVPERYQNLSPVGSGAYGSVCAAFDTKTGHRVAVKKLSRPFQSIIHAKRTYRELRLLKHMKHENVIGLLDVFTPARSLEEFNDVYLVTHLMGADLNNIVKCQKLTDDHVQFLIYQILRGLKYIHSADIIHRDLKPSNLAVNEDCELKILDFGLARHTDDEMTGYVATRWYRAPEIMANWMHYNQTVDIWSVGCIMAELLTGRTLFPGTDHIDQLKLILRLVGTPGAELLKKISSESARNYIQSLAQMPKMNFANVFIGANPLAVDLLEKMLVLDSDKRITAAQALAHAYFAQYHDPDDEPVAEPYDQSFESRDFLIDEWKSLTYDEVISFVPPPLDQEEMES
# Variants of: B1
row,Variant,screen value
1,chain 1 K16A,0.957 Z-score of the enrichment rate within one screen of 711 sequences
2,chain 1 K16Q,0.247 Z-score of the enrichment rate within one screen of 711 sequences
3,chain 1 K16T,0.151 Z-score of the enrichment rate within one screen of 711 sequences
4,"chain 1 K6A, chain 1 K13A",-0.984 Z-score of the enrichment rate within one screen of 711 sequences
5,chain 1 K7G,1.17 Z-score of the enrichment rate within one screen of 711 sequences
6,chain 1 K7S,0.9 Z-score of the enrichment rate within one screen of 711 sequences
7,"chain 1 K13A, chain 1 K16A",-0.809 Z-score of the enrichment rate within one screen of 711 sequences
8,"chain 1 S3A, chain 1 P15A",2.7 Z-score of the enrichment rate within one screen of 711 sequences
9,chain 1 K6D,0.0134 Z-score of the enrichment rate within one screen of 711 sequences
10,chain 1 K6V,0.748 Z-score of the enrichment rate within one screen of 711 sequences
11,chain 1 K6P,0.527 Z-score of the enrichment rate within one screen of 711 sequences
12,chain 1 K6E,-0.606 Z-score of the enrichment rate within one screen of 711 sequences
13,"chain 1 K6A, chain 1 I14A",-1.08 Z-score of the enrichment rate within one screen of 711 sequences
14,chain 1 R8L,0.23 Z-score of the enrichment rate within one screen of 711 sequences
15,chain 1 R8S,0.135 Z-score of the enrichment rate within one screen of 711 sequences
16,"chain 1 I14A, chain 1 P15A",-1.12 Z-score of the enrichment rate within one screen of 711 sequences
17,chain 1 K13N,-0.0907 Z-score of the enrichment rate within one screen of 711 sequences
18,chain 1 K13D,-0.943 Z-score of the enrichment rate within one screen of 711 sequences
19,chain 1 G11F,1.14 Z-score of the enrichment rate within one screen of 711 sequences
20,chain 1 G11S,0.683 Z-score of the enrichment rate within one screen of 711 sequences
21,chain 1 G11Y,1.26 Z-score of the enrichment rate within one screen of 711 sequences

row,Variant,screen value
1,chain 1 L12G,-0.861 Z-score of the enrichment rate within one screen of 711 sequences
2,chain 1 K4F,1.08 Z-score of the enrichment rate within one screen of 711 sequences
3,chain 1 K4Q,1.02 Z-score of the enrichment rate within one screen of 711 sequences
4,chain 1 K4I,0.786 Z-score of the enrichment rate within one screen of 711 sequences
5,chain 1 G5T,1.67 Z-score of the enrichment rate within one screen of 711 sequences
6,chain 1 G5S,1.65 Z-score of the enrichment rate within one screen of 711 sequences
7,chain 1 G5F,3.61 Z-score of the enrichment rate within one screen of 711 sequences
8,chain 1 G5N,1.64 Z-score of the enrichment rate within one screen of 711 sequences
9,chain 1 G5M,2.63 Z-score of the enrichment rate within one screen of 711 sequences
10,"chain 1 N9A, chain 1 K13A",-0.689 Z-score of the enrichment rate within one screen of 711 sequences
11,chain 1 P15G,0.848 Z-score of the enrichment rate within one screen of 711 sequences
12,chain 1 P15T,1.24 Z-score of the enrichment rate within one screen of 711 sequences
13,chain 1 P15Y,0.93 Z-score of the enrichment rate within one screen of 711 sequences
14,"chain 1 K7A, chain 1 P10A",-0.226 Z-score of the enrichment rate within one screen of 711 sequences
15,chain 1 S3C,1.84 Z-score of the enrichment rate within one screen of 711 sequences
16,chain 1 S3D,0.932 Z-score of the enrichment rate within one screen of 711 sequences
17,chain 1 I14T,-1.3 Z-score of the enrichment rate within one screen of 711 sequences
18,chain 1 P10Y,0.723 Z-score of the enrichment rate within one screen of 711 sequences
19,chain 1 P10M,0.502 Z-score of the enrichment rate within one screen of 711 sequences
20,chain 1 P10L,1.79 Z-score of the enrichment rate within one screen of 711 sequences

# Continued, values first:
row,screen value,Variant
1,-0.715 Z-score of the enrichment rate within one screen of 711 sequences,"chain 1 K6A, chain 1 L12A"
2,-0.807 Z-score of the enrichment rate within one screen of 711 sequences,chain 1 K7D
3,-0.931 Z-score of the enrichment rate within one screen of 711 sequences,"chain 1 L12A, chain 1 K16A"
4,-0.602 Z-score of the enrichment rate within one screen of 711 sequences,"chain 1 R8A, chain 1 K16A"
5,1.98 Z-score of the enrichment rate within one screen of 711 sequences,chain 1 N9K
6,0.752 Z-score of the enrichment rate within one screen of 711 sequences,chain 1 N9S
7,1.77 Z-score of the enrichment rate within one screen of 711 sequences,chain 1 N9P
8,0.467 Z-score of the enrichment rate within one screen of 711 sequences,chain 1 N9T
9,0.653 Z-score of the enrichment rate within one screen of 711 sequences,chain 1 K6A
10,-0.5 Z-score of the enrichment rate within one screen of 711 sequences,chain 1 R8E
11,0.126 Z-score of the enrichment rate within one screen of 711 sequences,chain 1 R8N
12,-0.274 Z-score of the enrichment rate within one screen of 711 sequences,chain 1 K13L
13,-1.05 Z-score of the enrichment rate within one screen of 711 sequences,chain 1 K13G
14,0.144 Z-score of the enrichment rate within one screen of 711 sequences,chain 1 K13V
15,0.477 Z-score of the enrichment rate within one screen of 711 sequences,chain 1 K13I
16,-0.0532 Z-score of the enrichment rate within one screen of 711 sequences,chain 1 K13S
17,-0.412 Z-score of the enrichment rate within one screen of 711 sequences,chain 1 K13A

row,screen value,Variant
1,2.65 Z-score of the enrichment rate within one screen of 711 sequences,"chain 1 G5A, chain 1 P15A"
2,-0.76 Z-score of the enrichment rate within one screen of 711 sequences,"chain 1 R8A, chain 1 L12A"
3,-1.06 Z-score of the enrichment rate within one screen of 711 sequences,chain 1 L12T
4,-1 Z-score of the enrichment rate within one screen of 711 sequences,chain 1 L12H
5,-1.31 Z-score of the enrichment rate within one screen of 711 sequences,chain 1 L12A
6,0.747 Z-score of the enrichment rate within one screen of 711 sequences,chain 1 K4Y
7,0.543 Z-score of the enrichment rate within one screen of 711 sequences,chain 1 K4G
8,0.526 Z-score of the enrichment rate within one screen of 711 sequences,chain 1 K4C
9,-0.0666 Z-score of the enrichment rate within one screen of 711 sequences,chain 1 K4P
10,-0.172 Z-score of the enrichment rate within one screen of 711 sequences,chain 1 K4D
11,2.33 Z-score of the enrichment rate within one screen of 711 sequences,chain 1 G5K
12,0.418 Z-score of the enrichment rate within one screen of 711 sequences,chain 1 P15E
13,1.68 Z-score of the enrichment rate within one screen of 711 sequences,chain 1 P15R
14,1.65 Z-score of the enrichment rate within one screen of 711 sequences,chain 1 P15K
15,-0.906 Z-score of the enrichment rate within one screen of 711 sequences,chain 1 I14N
16,0.158 Z-score of the enrichment rate within one screen of 711 sequences,chain 1 P10S
17,-0.745 Z-score of the enrichment rate within one screen of 711 sequences,"chain 1 K13A, chain 1 I14A"
